Source: patent publication US20120142098A1 (NOVIMMUNE S A, published 2012)

B1: muCH2-chimeric IgG1 15C1 (antibody, V domains shown)
VH: DVQLQESGPDLIQPSQSLSLTCTVTGYSITGGYSWHWIRQFPGNKLEWMGYIHYSGYTDFNPSLKTRISITRDTSKNQFFLQLNSVTTEDTATYYCARKDPSDGFPYWGQGTLVTVSA
VL: DIVMTQSPATLSVTPGDRVSLSCRASQSISDHLHWYQQKSHESPRLLIKYASHAISGIPSRFSGSGSGTDFTLSIKSVEPEDIGVYYCQNGHSFPLTFGAGTKLELK
notes: domain: CH1 and hinge; The CH2 domain of human IgG1 is replaced with that of mouse IgG1; Limits are in EU numbering; also called chimeric IgG1 15C1 containing mouse CH2; muCH2 chim 15C1; not shown: mouse IgG1 heavy chain CH2 domain, EU positions 231 to 340; human IgG1 heavy chain CH3 domain (after EU position 340); human Kappa light chain constant region
B2: huCH2-mouse IgG1 15C1 (antibody, V domains shown)
VH: B1 VH
VL: B1 VL
notes: domain: CH1 and hinge; The CH2 domain of mouse IgG1 is replaced with that of human IgG1; Limits are in EU numbering; also called mouse IgG1 15C1 containing human CH2; not shown: human IgG1 heavy chain CH2 domain, EU positions 231 to 340; mouse IgG1 heavy chain CH3 domain (after EU position 340); mouse kappa light chain constant region
B3: mouse IgG1 15C1 (antibody, V domains shown)
VH: B1 VH
VL: B1 VL
notes: Murine IgG1/K antibody; The hybridoma-derived and the PEAK-cell recombinant forms are treated as one molecule; also called mu15C1; murine 15C1
B4: chimeric MAb with the 15C1 variable region on a human IgG4 backbone (antibody, V domains shown)
VH: B1 VH
VL: B1 VL
notes: also called hIgG4 15C1; human IgG4 version of 15C1
B5: chimeric IgG1 15C1 mutant # C (SAAF at EU positions 325 to 328) (antibody, V domains shown)
VH: B1 VH
VL: B1 VL
notes: Positions are in EU numbering; not shown: human IgG1 heavy chain constant region; human Kappa light chain constant region
B6: chimeric IgG1 15C1 mutant # E (NAAL at EU positions 325 to 328) (antibody, V domains shown)
VH: B1 VH
VL: B1 VL
notes: as for B5
B7: chimeric IgG1 15C1 mutant # H (NKAF at EU positions 325 to 328) (antibody, V domains shown)
VH: B1 VH
VL: B1 VL
notes: as for B5
B8: chimeric IgG1 15C1 mutant # G (NAAF at EU positions 325 to 328) (antibody, V domains shown)
VH: B1 VH
VL: B1 VL
notes: as for B5
B9: chimeric IgG1 15C1 mutant # F (SKAF at EU positions 325 to 328) (antibody, V domains shown)
VH: B1 VH
VL: B1 VL
notes: as for B5
B10: chimeric IgG1 15C1 mutant # D (SAAL at EU positions 325 to 328) (antibody, V domains shown)
VH: B1 VH
VL: B1 VL
notes: as for B5
B11: A mu 231-261 CH2 chimeric IgG1 15C1 (antibody, V domains shown)
VH: B1 VH
VL: B1 VL
notes: It is built that way here; copies: 2 + 2
B12: chimeric IgG1 15C1 (antibody, V domains shown)
VH: B1 VH
VL: B1 VL
notes: also called chimeric 15C1; 15C1 on a human IgG1 backbone
B13: C mu 296-318 CH2 chimeric IgG1 15C1 (antibody, V domains shown)
VH: B1 VH
VL: B1 VL
notes: copies: 2 + 2
B14: D mu 262-295 CH2 chimeric IgG1 15C1 (antibody, V domains shown)
VH: B1 VH
VL: B1 VL
notes: copies: 2 + 2
B15: B mu 319-340 CH2 chimeric IgG1 15C1 (antibody, V domains shown)
VH: B1 VH
VL: B1 VL
notes: as for B11
B16: 15C1 humanized VH mutant 1 together with 15C1 humanized VL A26 (antibody, human IgG1, V domains shown)
VH: QVQLQESGPGLVKPSDTLSLTCAVSGYSITGGYSWHWIRQPPGKGLEWMGYIHYSGYTDFNPSLKTRITISRDTSKNQFSLKLSSVTAVDTAVYYCARKDPSDAFPYWGQGTLVTVSS
VL: EIVLTQSPDFQSVTPKEKVTITCRASQSISDHLHWYQQKPDQSPKLLIKYASHAISGVPSRFSGSGSGTDFTLTINSLEAEDAATYYCQNGHSFPLTFGGGTKVEIK
notes: also called version VH mutant 1

Target: T1, human TLR4/MD2 complex expressed on the cell surface (human, UniProt O00206 24-839; Q9Y6Y9 19-160)
T1 construct: also called CHO TLR4/MD2 transfectants
T1 sequence (O00206 24-839 limits assumed, chain 1 of 2): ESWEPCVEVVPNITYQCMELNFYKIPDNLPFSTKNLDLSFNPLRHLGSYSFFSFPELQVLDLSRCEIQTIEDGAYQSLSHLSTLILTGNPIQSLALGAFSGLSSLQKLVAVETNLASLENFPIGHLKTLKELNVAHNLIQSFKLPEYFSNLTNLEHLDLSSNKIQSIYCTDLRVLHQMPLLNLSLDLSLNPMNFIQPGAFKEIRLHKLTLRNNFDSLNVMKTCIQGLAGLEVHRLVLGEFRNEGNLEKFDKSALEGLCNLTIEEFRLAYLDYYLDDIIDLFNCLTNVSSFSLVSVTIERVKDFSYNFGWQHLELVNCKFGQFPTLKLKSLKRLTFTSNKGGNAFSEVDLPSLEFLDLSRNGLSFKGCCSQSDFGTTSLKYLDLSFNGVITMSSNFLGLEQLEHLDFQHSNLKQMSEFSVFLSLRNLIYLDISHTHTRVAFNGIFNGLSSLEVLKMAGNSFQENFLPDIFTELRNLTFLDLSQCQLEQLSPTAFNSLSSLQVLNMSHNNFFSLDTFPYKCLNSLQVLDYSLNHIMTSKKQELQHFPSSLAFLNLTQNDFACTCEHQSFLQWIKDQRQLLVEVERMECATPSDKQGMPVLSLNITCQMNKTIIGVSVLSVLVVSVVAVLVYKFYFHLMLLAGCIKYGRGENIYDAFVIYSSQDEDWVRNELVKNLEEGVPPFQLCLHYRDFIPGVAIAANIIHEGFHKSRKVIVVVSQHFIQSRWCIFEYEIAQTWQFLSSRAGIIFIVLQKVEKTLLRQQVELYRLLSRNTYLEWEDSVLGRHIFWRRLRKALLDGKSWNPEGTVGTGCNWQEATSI
T1 sequence (Q9Y6Y9 19-160 R56G limits assumed, chain 2 of 2): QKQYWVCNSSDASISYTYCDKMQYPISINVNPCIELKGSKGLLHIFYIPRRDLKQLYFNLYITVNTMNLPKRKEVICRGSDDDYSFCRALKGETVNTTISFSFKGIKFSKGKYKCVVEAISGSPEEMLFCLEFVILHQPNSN
Assay: FACS on CHO TLR4/MD2 transfectants

Binding result, binds:
B1
B2

Target: T1, human TLR4/MD2 complex expressed on the …
Assay: binding to TLR4/MD-2 transfected CHO cells

Binding result, binds:
B3
B4

Target: T1, human TLR4/MD2 complex expressed on the …
Assay: FACS on CHO stable cell line expressing human TLR4/MD2

Binding result, binds:
B5
B6
B7
B8
B9
B10

Target: T1, human TLR4/MD2 complex expressed on the …
Assay: FACS on CHO stable cell line expressing human TLR4-MD2 complex
Procedure: Studies were then designed to evaluate which residues of the mouse CH2 domain are necessary for Fc-mediated inhibitory activity. Starting with the chimeric IgG115C1 containing the full length mouse CH2 domain, the approach was to identify the critical region of the CH2 domain by introducing a maximum number of human residues without observing a loss of the Fc-mediated inhibitory activity. The identification of these critical residues was determined by subdividing the mouse CH2 into 4 parts (A: EU positions 231 to 261; B: EU positions 319 to 340; C: EU positions 296-318 and D: EU positions 262 to 295) and introducing for each of the 4 sub-regions the corresponding CH2 amino acid sequence of a human IgG1 (see FIG. 6A). The sub-division of the mouse CH2 into four subregions was purely based on amino acid sequence homology with the human CH2. The four heavy chain mutants were engineered by overlapping PCR and recombinant MAbs expressed in PEAK. The corresponding antibodies were purified from transfected-cell supernatants by protein G affinity column chromatography and binding to CHO stable cell line expressing human TLR4-MD2 complex on their surface of the following antibodies was determined: muCH2-chimeric IgG1 15C1; chimeric IgG1 15C1; A mu 231-261 CH2 chimeric IgG1 15C1; B mu 319-340 CH2 chimeric IgG1 15C1; C mu 296-318 CH2 chimeric IgG1 15C1; and D mu 262-295 CH2 chimeric IgG1 15C1. 4×10⁵ cells/well were incubated for 30 minutes at 4° C. in 50 μl of phosphate buffered saline (PBS) with 1% bovine serum albumin (PBS-1% BSA) and either serial dilution of the appropriate antibody or an irrelevant human IgG1 isotype control. Cells were washed once with PBS-1% BSA and incubated in the same buffer with FMAT-Blue®-conjugated goat anti-human Kappa light chain antibody (1:250 dilution, Sigma K3502) for 30 minutes at 4° C. Cells were washed twice with PBS-1% BSA and analyzed using a FACScalibur® flow cytometer […] in the FL-4 channel.

Binding result, binds:
B11
B12
B13
B14
B15

Target: T1, human TLR4/MD2 complex expressed on the …
Assay: FACS (MFI) on CHO cells expressing human TLR4-MD2; PEAK supernatants at 0.33, 0.11 and 0.04 ug/ml
Procedure: The binding of these mutants was analyzed by FACS on cells expressing recombinant human TLR4-MD2. PEAK cells were co-transfected with 1 ug of combinations of expression vectors encoding 15C1 humanized VH mutant 1 or 2 together with 15C1 humanized VL A26 or 15C1 humanized VH 4-28 together with 15C1 humanized VL mutant 1, 2, 3 or 4 shown in Example 4 using the Trans IT-LT1 transfection reagent (Mirus Bio Corporation, Madison Wis.). All transfections were carried out in duplicates. 72 h post-transfection, PEAK cells supernatants were collected and the concentration of recombinant human IgG1/Kappa measured by ELISA. The antibody concentrations of all the supernatants were then adjusted to 0.33 μg/ml. These supernatants and two serial dilutions of 0.11 and 0.04 ug/ml were then tested for binding to CHO cells expressing human TLR4-MD2 at their surface by FACS. 5×10⁵ cells were incubated with the diluted PEAK supernatant for 1 h at 4° C.

Binding result, binds:
B16
